In assay [1] the target is T1, human IL4 (human, UniProt P05112 25-153, biotinylated in the SPR and competition assays (sites not given)).
T1 sequence: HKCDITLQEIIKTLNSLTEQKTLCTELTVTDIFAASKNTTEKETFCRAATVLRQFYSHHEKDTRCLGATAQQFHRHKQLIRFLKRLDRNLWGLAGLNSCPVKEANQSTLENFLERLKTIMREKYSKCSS
The assay is described as follows: cell-based or functional assay.

Assay [2] concerns the target T1, human IL4. Briefly: SPR ProteOn, biotin-IL4 on neutravidin chip, 1:1 fit. The procedure: Purified binders selected as “hits” were ranked by their affinity on a ProteOn XPR-36 instrument (Bio-Rad). ProteOn is an optical biosensor instrument that measures protein-protein interactions in real time, based on Surface Plasmon Resonance technology similar to Biacore (GE). A rapid experimental protocol was performed as follows: On a GLC sensor chip (Bio-Rad), Neutravidin (Thermo Scientific) was covalently immobilized to a density of >5000 RU using amine coupling chemistry as described by the manufacturer. On one flow cell, biotinylated IL4 (Peprotech) was immobilized to a level of 250 RU, while another flow cell was used as reference, with neutravidin immobilized only. […] The retrieved values were used to rank the AR proteins by their affinity.

The target in assay [3] is T1, human IL4. Briefly: Luminex competition, 67 pM biotin-IL4 binding to IL4RA-Fc beads. The procedure:
For biotinylation of IL4, recombinant human IL4 (Peprotech) was biotinylated at a 4:1 ratio using EZ-Link NHS-LC-Biotin (Pierce, #21336) for 2 hours at RT. The protein was dialyzed in PBS overnight to remove excess biotinylation reagent. Competition binding for cynomologous IL4 (SEQ ID NO: 5) was performed using the isolated protein biotinylated in the same manner.
AR protein inhibition of IL4 binding to IL4 RA was assessed using IL4 RA-Fc (R&D Systems), comprising the Gly24-His232 which represents the ECD (SEQ ID NO: 5) fused to a human IgGl-Fc and therefor a disulfide linked homodimer. The protein was conjugated to carboxylated Luminex microspheres according to the manufacturer's protocol. For neutralization experiments, 5000 IL4RA-Fc conjugated beads in 50 μl were added to each well of a 96-well filter plate (Millipore). Biotinylated human IL4 was mixed with an appropriate dilution of AR protein in Luminex Assay Buffer (PBS, 1% BSA, pH 7.4) to give a final concentration of 67 pM IL4. The plate was incubated for 1 hour at RT in the dark on a plate shaker, set to shake vigorously to avoid bead aggregation. The plate was washed twice with 150 μl of wash buffer (PBS, 0.1% BSA, pH 7.4, 0.05% Tween-20) using a vacuum manifold followed by the addition of 50 μl of Streptavidin PE at 25 μg/ml and incubated at RT for 20 minutes. The plates were washed again and 150 μl of sheath fluid was added and the plate was placed on the shaker for 5 minute. Plates were read using a Luminex® 100 system; data were plotted as a function of AR protein concentration. IC₅₀ values were determined by fitting the data to the equation for sigmoidal dose response using PRISM software (GraphPAD PRISM) (Table 6).

B1: C06_13A10 (designed binder)
chain: DLGKKLLEAARAGQDDEVRILMANGADVNVSDRIGNTPLHLAAVYVHLEIVEVLLKNGADVNALDDDGLTPLHLAAADGHLEIVEVLLKHGADVNATDSHVWTPLHLAAFFGHLEIVEVLLKYGADVNAQDKFGKTAFDISIDNGNEDLAEILQKLN
notes: ankyrin repeat protein; His-tagged, IMAC-purified
As usually defined, the Kd is the concentration at which binding is half-saturated. Low readings indicate a tighter complex, high ones a looser complex. Usually koff stands for the first-order rate constant of dissociation. A low value points to slow dissociation. By kon is commonly meant the second-order rate constant of association. Read a low kon as slow association. As usually defined, the IC50 is the concentration at which inhibition is half-maximal. Regarding B1, in assay [1], the “A549 TARC Inhibition IC50” value was found to be 621 pM, the “HEK Stat6 Inhibition IC50” value was found to be 5.4 pM and the “Type 1 Complex inhibition IC50” value turned out to be 6.6 pM. For the same molecule, in assay [2], binding was put at a Kd of 0.0592 nM, the dissociation rate constant (koff) stood at 0.000149 s⁻¹ and the kon was determined as 2.52e+06 M⁻¹ s⁻¹. The same molecule showed an IC50 in assay [3] of 0.0306 nM.

B2: C06_19C3 (designed binder)
chain: DLGKKLLEAARAGQDDEVRILMANGADVNATDDWGDTLLHLAATDGHLEIVEVLLKNGADVNAIDAMGMTPLHLAAVYGYLEIVEVLLKNGADVNAMDFSGFTPLHLAAFSGHLEIVEVLLKYGADVNAQDKFGKTAFDISIDNGNEDLAEILQKLN
notes: as for B1
In the case of B2, the “HEK Stat6 Inhibition IC50” value in assay [1] turned out to be 1.5 pM. In assay [2], this molecule registered a Kd of 0.101 nM, a koff of 9.73e-05 s⁻¹ and a kon of 962000 M⁻¹ s⁻¹. In addition, the 50% inhibitory concentration (IC50) in assay [3] came to 0.0063 nM.

B3: C06_54C2 (designed binder)
chain: DLGKKLLEAARAGQDDEVRILMANGADVNATDDWGDTLLHLAATDGHLEIVEVLLKNGADVNAIDAMGMTPLHLAAVYGYLEIVEVLLKNGADVNAMDFSGFTPLHLTAFSGHLEIVEVLLKYGADVNAQDKFGKTAFDISIDNGNEDLAEILQKLN
notes: as for B1
B3: the “HEK Stat6 Inhibition IC50” value in assay [1] was 3.2 pM. In addition, in assay [2], the equilibrium dissociation constant (Kd) worked out at 0.4 nM, the off-rate (koff) came to 0.000161 s⁻¹ and the kon was 403000 M⁻¹ s⁻¹. Further, in assay [3], the IC50 was 0.0168 nM.

B4: C06_50E5 (designed binder)
chain: DLGKKLLEAARAGQDDEVRILMANGADANATDDWGDTLLHLAATDGHLEIVEVLLKNGADVNAIDAMGMTPLHLAAVYGYLEIVEVLLKNGADVNAMDFSGFTPLHLAAFSGHLEIVEVLLKYGADVNAQDKFGKTAFDISIDNGNEDLAEILQKLN
notes: as for B1
Regarding B4, the “HEK Stat6 Inhibition IC50” value in assay [1] turned out to be 3.5 pM. In assay [2], binding was characterised by a dissociation constant (Kd) of 0.174 nM, the koff was found to be 0.000126 s⁻¹ and the kon was 725000 M⁻¹ s⁻¹. The same molecule had an IC50 in assay [3] of 0.0148 nM.

B5: C06_17A11 (designed binder)
chain: DLGKKLLEAARAGQDDEVRILMANGADVNAIDEWGDTPLHLAAIEGHLEIVEVLLKYGADVNASDAMGMTPLHLAAVYGYLEIVEVLLKNGADVNAMDFSGFTPLHLAAFSGHLEIVEVLLKYGADVNAQDKFGKTAFDISIDNGNEDLAEILQKLN
notes: as for B1
For B5, in assay [1], the “HEK Stat6 Inhibition IC50” value turned out to be 3 pM. In assay [2], this molecule returned a Kd of 0.136 nM, a koff of 0.00014 s⁻¹ and a kon of 1.03e+06 M⁻¹ s⁻¹. For the same molecule, in assay [3], the IC50 worked out at 0.0744 nM.

B6: C06_19F8 (designed binder)
chain: DLGKKLLEAARAGQDDEVRILMANGADVNATDDWGDTLLHLAATDGHLEIVEVLLKNGADVNASDSQGLTPLHLAAYYGHLEIVEVLLKYGADVNANDHHGITPLHLAAFAGHLEIVEVLLKYGADVNAQDKFGKTAFDISIDNGNEDLAEILQKLN
notes: as for B1
With B6, the “HEK Stat6 Inhibition IC50” value in assay [1] was 15.2 pM. In assay [2], this molecule yielded a dissociation constant (Kd) of 1.41 nM, a koff of 5.18e-05 s⁻¹ and a kon of 36600 M⁻¹ s⁻¹. The molecule also showed an IC50 in assay [3] of 0.0176 nM.

B7: C06_26H2 (designed binder)
chain: DLGKKLLEAARAGQDDEVRILMANGADVNAYDSSGDTPLHVAAIDGHLEIVEVLLKHGADVNASDASGDTPLHLAADFGHLKIVEVLLKHGADVNAEDMIGITPLHLAAYNGHLEIVEVLLKNGADVNASDVHGFTPLHLAAFIGHLGIVEVLLKYDADVNAQDKFGKTAFDISIDNRNEDLAEILQKLN
notes: as for B1
Turning to B7, the “HEK Stat6 Inhibition IC50” value in assay [1] is 3.3 pM. In assay [2], this molecule displayed a Kd of 0.0712 nM, a koff of 0.000247 s⁻¹ and an on-rate constant (kon) of 3.47e+06 M⁻¹ s⁻¹. In assay [3], the IC50 turned out to be 0.0314 nM.

B8: C06_14A4 (designed binder)
chain: DLGKKLLEAARAGQDDEVRILMANGADVNATDAWGLTPLHLAALLGHLEIVEVLLKHGADVNAHDETGFTPLHLAAVEGHLEIVEVLLKYGADVNASDILGRTPLHLAANFGHLEIVEVLLKYGADVNAQDKFGKTAFDISIDNGNEDLAEILQKLN
notes: as for B1
In assay [2], B8 registered a Kd of 0.0858 nM, a koff of 2.73e-05 s⁻¹ and a kon of 318000 M⁻¹ s⁻¹.

B9: C06_42A11 (designed binder)
chain: DLGKKLLEAASVGQDDEVHILMANGADVNATDAWGLTPLHLAALLGHLEIVEVLLKHGADVNAHDETGFTPLHLAAVEGHLEIVEVLLKYGADVNASDILGRTPLHLAANFGHLEIVEVLLKHGADVNAQDKFGKTAFDISIDNGNEDLAEILQKLN
notes: as for B1
As for B9, in assay [1], the “A549 TARC Inhibition IC50” value came out at 325 pM, the “HEK Stat6 Inhibition IC50” value was 19.3 pM and the “Type 1 Complex inhibition IC50” value is 3.2 pM. Further, in assay [2], the Kd is 0.0075 nM, the off-rate (koff) turned out to be 5.43e-06 s⁻¹ and the kon was found to be 727000 M⁻¹ s⁻¹. Further, the IC50 in assay [3] stood at 0.0656 nM.

B10: C06_4A7 (designed binder)
chain: DLGKKLLEAARAGQDDEVRILMANGADVNAEDDWGLTPLHLAAMLGHLEIVEVLLKYGADVNAKDDTGFTPLHLAAVEGHLEIVEVLLKYGADVNASDILGRTPLHLAANFGHLEIVEVLLKYGADVNAQDKFGKTAFDISIDNGNEDLAEILQKLN
notes: as for B1
Take B10: in assay [1], the “HEK Stat6 Inhibition IC50” value worked out at 444 pM. The molecule further registered an IC50 in assay [3] of 0.0443 nM.

B11: C06_24H1 (designed binder)
chain: DLGKKLLEAARAGQDDEVRILMANGADVNAHDNSGFTPLHLAAEIGHLEIVEVLLKYGADVNAADRMGDTPLHLAAFVGHLEIVEVLLKYGADVNAVDLAGVTPLHVAAFYGHLEIVEVLLKNGADVNAQDKFGKTAFDISIDNGNEDLAEILQKLN
notes: as for B1
On to B11, for which the “HEK Stat6 Inhibition IC50” value in assay [1] amounted to 241 pM. In assay [3], this molecule had an IC50 of 0.0717 nM.

B12: C06_20B8 (designed binder)
chain: DLGKKLLEAASAGQDDEVHILMANGADVNAVDHDGFTPLHLAAADGHLEIVEVLLKHGADVNADDNFGWTPLHLAAFFGHLEIVEVLLKHGADVNAKDQTGLTPLHLAAVDGHLEIVEVLLKHGADVNAQDKFGKTAFDISIDNGNEDLAEILQKLN
notes: as for B1
In the case of B12, in assay [1], the “A549 TARC Inhibition IC50” value was 288 pM, the “HEK Stat6 Inhibition IC50” value is 4 pM and the “Type 1 Complex inhibition IC50” value amounted to 3.8 pM. Also, in assay [2], the Kd is 0.0809 nM, the koff was 0.000163 s⁻¹ and the association rate constant (kon) is 2.02e+06 M⁻¹ s⁻¹. In assay [3], this molecule registered an IC50 of 0.0205 nM.

B13: C06_42C7 (designed binder)
chain: DLGKKLLEAASAGQDDEVRILMANGADVNAVDHDGFTPLHLAAADGHLEIVEVLLKHGADVNADDNFGWTPLHLAAFFGHLEIVEVLLKHGADVNAKDQTGLTPLHLAAVDGHLEIVEVLLKHGADVNAQDKFGKTAFDISIDNGNEDLAEILQKLN
notes: as for B1
As to B13, the “HEK Stat6 Inhibition IC50” value in assay [1] stood at 6.8 pM. For the same molecule, in assay [2], binding was put at a Kd of 0.0978 nM, the koff amounted to 0.000179 s⁻¹ and the kon amounted to 1.83e+06 M⁻¹ s⁻¹. In assay [3], this molecule showed an IC50 of 0.0459 nM.

B14: C06_28D4 (designed binder)
chain: DLGKELLEAASAGQDDEVHILMANGADVNAVDHDGFTPLHLAAADGHLEIVEVLLKHGADVNADDNFGWTPLHLAAFFGHLEIVEVLLKHGADVNAKDQTGLTPLHLAAVDGHLEIVEVLLKNGADVNAQDKFGKTAFDISIDNGNEDLAEILQKLN
notes: as for B1
As to B14, the “HEK Stat6 Inhibition IC50” value in assay [1] turned out to be 3.2 pM. In assay [2], this molecule yielded an equilibrium dissociation constant (Kd) of 0.0856 nM, a koff of 0.000138 s⁻¹ and a kon of 1.62e+06 M⁻¹ s⁻¹. The IC50 in assay [3] came out at 0.0353 nM.

The values above are taken from patent US20120277143A1 (Janssen / Centocor, published 2012).
